Measurements reported in FireProtDB (doi:10.1021/bi300982v).

Conditions: Thermus thermophilus, pH 7, sodium phosphate 50 mM, transition: 2, reversible: yes, whole UniProt chain shown; for denaturant midpoint (higher = more stable): 25 °C, GdnHCl

B1: Cytochrome c-552 wild type, P04164 (protein)
chain: QADGAKIYAQCAGCHQQNGQGIPGAFPPLAGHVAEILAKEGGREYLILVLLYGLQGQIEVKGMKYNGVMSSFAQLKDEEIAAVLNHIATAWGDAKKVKGFKPFTAEEVKKLRAKKLTPQQVLAERKKLGLK
denaturant midpoint (higher = more stable) (absorbance): 3.6 M | denaturant midpoint (higher = more stable) (far-UV-CD): 4.1 M | denaturant midpoint (higher = more stable) (heme-CD): 3.4 M | Tm (Thermal, CD): 95 °C | heat capacity change of unfolding (Thermal, CD): 0.31 kcal/mol/K | unfolding enthalpy (calorimetric) (Thermal, CD): 30.4 kcal/mol | unfolding free energy (Thermal, CD): 3.11 kcal/mol
